From patent US20220089761A1 come the findings set out here.

The target in the assay is CD20 receptor on WIL2-S cell line (human) (UniProt P11836). Put plainly: flow cytometry on WIL2-S cells, detection with anti-human Fc-PE. (A flow cytometer gives signals particle by particle.)
UniProt P11836, sequence (P11836 whole entry): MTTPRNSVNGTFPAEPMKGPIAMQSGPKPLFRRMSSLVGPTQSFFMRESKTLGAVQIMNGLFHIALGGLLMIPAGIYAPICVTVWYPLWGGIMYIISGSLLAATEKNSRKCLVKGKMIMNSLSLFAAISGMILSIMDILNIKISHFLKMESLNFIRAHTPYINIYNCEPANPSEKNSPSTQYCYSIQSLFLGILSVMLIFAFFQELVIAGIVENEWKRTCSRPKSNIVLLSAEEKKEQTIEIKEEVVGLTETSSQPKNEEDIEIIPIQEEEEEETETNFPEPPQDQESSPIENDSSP

For orientation: EC50 (read off the curve) means the concentration needed to bring the measured effect to its halfway point. MabThera (Rituximab) (antibody) had an EC50 (read off the curve) of 1 µg/mL.
